Experimental data: patent US20220169693A1, “Screening Assays, Modulators and Modulation of Intracellular Signalling Mediated by Immunoglobulin Superfamily Cell Adhesion Molecules” (Monash University, priority 2018, published 2022)

How the values were obtained:
Type in all cases: cell-based
[1] = target: T1, cytosolic tail of BCAM, BCAM569-628 (Homo sapiens, UniProt P50895); assay: Ang II-induced p65 expression in AT1R-CHO cells transfected with cytosolic tail of BCAM; design: corresponds to residues 569-628 of BCAM plus an initiating Methionine; initiating Methionine (N); expressed in transfected cells; host or cells: AT1R-CHO (CHO stably transfected with human AT1R-Rluc8); insert in pCIneo; conditions: Ang II 1 μM, co-transfection (FIG. 3H)
T1 sequence (P50895 with tags, fused parts or gaps): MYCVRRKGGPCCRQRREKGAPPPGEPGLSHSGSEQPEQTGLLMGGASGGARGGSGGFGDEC
Experimental: (§1) Adult retinal pigment epithelial (ARPE) cells were cultured in Dulbecco's modified Eagle's medium (DMEM)/F12 endothelial cell growth supplement (ECGS) supplemented media. Chinese Hamster Ovary (CHO) cells were cultured using F12 media (10% FCS with 2 mM glutamine). Human microvascular endothelial cells (HMEC) were cultured in MCDB 131 medium (10% FCS with 10 mM glutamine, EGF and hydrocortisone).
(§2) 100 ng of AT1R-Rluc8 construct was transfected into CHO cells using Lipofectamine 2000 (Thermo). Stable transfectants were selected using G418. AT1R-CHO were then transiently transfected with the IgSF CAM and/or RAGE constructs using Lipofectamine 2000 (Invitrogen) and incubated for 16h.
Oligonucleotides were designed and ordered to generate the ALCAM, BCAM and MCAM intracellular (cytosolic) domains. […]
After 2 hours of exposure to Ang II (1 μM) cells were placed in Trizol, mRNA extracted and cDNA synthesized. Changes in the gene expression of the NFκB subunit, p65 (RelA) or NFκB-activated target genes (e.g ICAM-1) were estimated by quantitative real-time RT-PCR, performed using the TaqMan system based on real-time detection of accumulated fluorescence (ABI Prism 7700, Perkin-Elmer Inc, PE Biosystems, Foster City, Calif., USA). […]

[2] = target: T2, full length RAGE1-404 transactivated by C5a receptor 1 (Homo sapiens, UniProt Q15109); assay: C5a-induced ICAM-1 expression in ARPE cells transfected with C5aR1 and full length RAGE; conditions: C5a 1 μM, co-expression (FIG. 6B)
T2 construct: expressed in transfected cells; host or cells: human ARPE (adult retinal pigment epithelial) cells
T2 sequence (Q15109 23-404): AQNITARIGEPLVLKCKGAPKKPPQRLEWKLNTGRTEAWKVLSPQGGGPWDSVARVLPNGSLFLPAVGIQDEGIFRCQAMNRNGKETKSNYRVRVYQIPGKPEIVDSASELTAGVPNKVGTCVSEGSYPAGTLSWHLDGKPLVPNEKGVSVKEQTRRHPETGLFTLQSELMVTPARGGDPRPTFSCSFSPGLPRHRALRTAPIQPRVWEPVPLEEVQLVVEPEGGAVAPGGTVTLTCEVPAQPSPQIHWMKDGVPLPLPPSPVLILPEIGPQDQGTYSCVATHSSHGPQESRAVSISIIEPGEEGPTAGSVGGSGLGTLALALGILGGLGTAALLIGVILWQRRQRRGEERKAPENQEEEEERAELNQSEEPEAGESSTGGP

[3] = target: T3, cytosolic tail of human EpCAM, EpCAM289-314 (Homo sapiens, UniProt P16422); assay: Ang II-induced p65 expression in AT1R-CHO cells transfected with cytosolic tail of EpCAM; conditions: Ang II 1 μM, co-transfection (FIG. 3J)
T3 construct: corresponds to residues 289-314 of EpCAM plus an initiating Methionine; initiating Methionine (N); expressed in transfected cells; host or cells: AT1R-CHO (CHO stably transfected with human AT1R-Rluc8), transient transfection
T3 sequence (P16422 with tags, fused parts or gaps limits assumed): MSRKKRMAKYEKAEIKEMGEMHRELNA
Experimental: as §1, §2
(§3) After 2 hours of exposure to Ang II (1 μM) cells were placed in Trizol, mRNA extracted and cDNA synthesized. Changes in the gene expression of the NFκB subunit, p65 (RelA) or NFκB-activated target genes (e.g ICAM-1) were estimated by quantitative real-time RT-PCR, performed using the TaqMan system based on real-time detection of accumulated fluorescence (ABI Prism 7700, Perkin-Elmer Inc, PE Biosystems, Foster City, Calif., USA). Gene expression was normalized to 18S mRNA and reported as fold change compared to the level of expression in untreated control mice/cells, which were given an arbitrary value of 1.

full length RAGE1-404 [4] = target: T4, full length RAGE1-404 (Homo sapiens, UniProt Q15109); assay: Ang II-induced p65 expression in AT1R-CHO cells transfected with full length human RAGE; design: expressed in transfected cells; host or cells: AT1R-CHO (CHO stably transfected with human AT1R-Rluc8), transient transfection; conditions: Ang II 1 μM 2 h, co-transfection (FIG. 6A)
T4 sequence (Q15109 23-404): as the sequence (Q15109 23-404) above
Experimental: as §1, §2, §3

full length RAGE1-404 [5] = target: T4, full length RAGE1-404; assay: S100A8/A9-induced PCNA expression in CHO cells transfected with full length RAGE; design: expressed in transfected cells; host or cells: CHO cells; conditions: S100A8/A9 1 μM 2 h, co-transfection (FIG. 4B)

MKHVNKDLGNMEENKKLEENNHK [ALCAM559-580]
induction of p65-NFκB expression by Ang II via transactivation of BCAM569-628 [1]: prevents induction
RAGE-dependent induction of ICAM-1 expression following transactivation of RAGE by C5a receptor 1 [2]: inhibits
induction of p65-NFκB expression by Ang II via transactivation of EpCAM289-314 [3]: prevents induction
induction of p65 expression mediated by full length human RAGE1-404 transactivated by AT1 receptor (full length RAGE1-404 [4]): inhibits
ligand-dependent signalling (PCNA expression) via full length RAGE activated by S100A8/A9 (full length RAGE1-404 [5]): inhibited
